Measurements: paper PMC4624954, “Delineating the Tes Interaction Site in Zyxin and Studying Cellular Effects of Its Disruption” (PLoS ONE, 2015)

Target: T1, Zyx FL WT-GFP (human, UniProt Q15942 1-572)
T1 sequence (looked up): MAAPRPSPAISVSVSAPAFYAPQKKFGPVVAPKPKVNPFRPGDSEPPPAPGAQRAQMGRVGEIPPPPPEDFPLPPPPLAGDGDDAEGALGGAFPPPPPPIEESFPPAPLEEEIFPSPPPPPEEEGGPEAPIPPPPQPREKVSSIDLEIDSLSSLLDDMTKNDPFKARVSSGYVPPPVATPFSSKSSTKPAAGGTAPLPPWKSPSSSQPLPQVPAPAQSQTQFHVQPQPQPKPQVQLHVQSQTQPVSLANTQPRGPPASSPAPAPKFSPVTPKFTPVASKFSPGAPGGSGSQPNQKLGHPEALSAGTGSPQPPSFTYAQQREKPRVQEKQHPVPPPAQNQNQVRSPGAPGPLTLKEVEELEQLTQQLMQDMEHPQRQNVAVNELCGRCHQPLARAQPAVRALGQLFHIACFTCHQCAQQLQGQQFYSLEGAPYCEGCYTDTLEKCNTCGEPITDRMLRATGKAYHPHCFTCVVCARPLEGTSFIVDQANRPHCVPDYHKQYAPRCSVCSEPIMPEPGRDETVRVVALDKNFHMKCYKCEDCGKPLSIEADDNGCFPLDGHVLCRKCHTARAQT
Test: cell-based or functional assay

B1: Tes FL-GFP (natural protein, UniProt Q9UGI8 1-421, looked up)
chain: MDLENKVKKMGLGHEQGFGAPCLKCKEKCEGFELHFWRKICRNCKCGQEEHDVLLSNEEDRKVGKLFEDTKYTTLIAKLKSDGIPMYKRNVMILTNPVAAKKNVSINTVTYEWAPPVQNQALARQYMQMLPKEKQPVAGSEGAQYRKKQLAKQLPAHDQDPSKCHELSPREVKEMEQFVKKYKSEALGVGDVKLPCEMDAQGPKQMNIPGGDRSTPAAVGAMEDKSAEHKRTQYSCYCCKLSMKEGDPAIYAERAGYDKLWHPACFVCSTCHELLVDMIYFWKNEKLYCGRHYCDSEKPRCAGCDELIFSNEYTQAENQNWHLKHFCCFDCDSILAGEIYVMVNDKPVCKPCYVKNHAVVCQGCHNAIDPEVQRVTYNNFSWHASTECFLCSCCSKCLIGQKFMPVEGMVFCSVECKKRMS
  quantity of Tes FL-GFP in focal adhesions of zyxin-null fibroblasts with Zyx FL WT-DsRed against the DsRed control (confocal immunofluorescence): 2 fold
